Assay results published in publication doi:10.1101/2023.01.25.525455 (bioRxiv, 2023).
“And” between values parts separate entries of the source, which are not always exact repeats. Equal values may be shown once.

Key:
purified VPS29 = purified VPS29 (human, UniProt Q9UBQ0 1-182); experiment: ITC
recombinant DENND10 = recombinant DENND10 (human, UniProt Q8TCE6 1-357); experiment: ITC
Chain of recombinant DENND10 (Q8TCE6 whole entry): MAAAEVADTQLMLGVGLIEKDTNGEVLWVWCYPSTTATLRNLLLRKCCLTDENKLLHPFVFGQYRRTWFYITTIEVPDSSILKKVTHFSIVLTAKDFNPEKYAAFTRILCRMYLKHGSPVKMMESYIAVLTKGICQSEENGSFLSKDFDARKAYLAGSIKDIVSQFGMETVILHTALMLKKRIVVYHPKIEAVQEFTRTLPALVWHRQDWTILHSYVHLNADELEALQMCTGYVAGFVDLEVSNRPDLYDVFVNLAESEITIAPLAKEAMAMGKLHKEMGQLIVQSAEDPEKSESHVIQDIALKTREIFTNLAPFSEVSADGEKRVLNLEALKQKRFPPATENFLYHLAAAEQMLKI

Binder: EFASCRLEAVPLEFGDYHPLKPI [synthetic VPS35L peptide (residues Glu16-Ile38)]
- Kd (purified VPS29): 1800 nM and 1870 nM

Binder: EFGDYHPLKP [VPS35L^28-37 peptide]
- Kd (purified VPS29): 6800 nM

B1: CCDC22-CCDC93 CC1-CC2 complex (CCDC22(325-485) + CCDC93(310-488)), wild type (complex)
chain 1: VTWAAQEQELESLREQLEGVNRSIEEVEADMKTLGVSFVQAESECRHSKLSTAEREQALRLKSRAVELLPDGTANLAKLQLVVENSAQRVIHLAGQWEKHRVPLLAEYRHLRKLQDCRELESSRRLAEIQELHQSVRAAAEEARRKEEVYKQLMSELETLP
chain 2: GTSQLHRRKVISLNKQIAQKTKHLEELRASHTSLQARYNEAKKTLTELKTYSEKLDKEQAALEKIESKADPSILQNLRALVAMNENLKSQEQEFKAHCREEMTRLQQEIENLKAERAPRGDEKTLSSGEPPGTLTSAMTHDEDLDRRYNMEKEKLYKIRLLQARRNREIAILHRKIDEV
- Kd (recombinant DENND10): 28 ± 6 nM
